Test results from the supplement of paper PMC10567573.

B1: CDS2 (parent)
chain: LIVVTQSHLVIHNLFEGMIWFIVP
B2: ISL2 (parent)
chain: HYPFLGAMGDHSKKKPGTAMCVGC

Variants of: B1
Experiment: protein stability index of a GFP-peptide fusion (GPS, HEK-293T) (PSI 1-6); higher = more stable
Settings: c terminus: a fixed tail appended
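Note: lentivirally expressed fusions sorted by FACS into six bins by GFP to DsRed ratio, PSI derived from sequencing read proportions per bin multiplied by bin number.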

Protein stability index: each site, then its substitutions
L1: Y 3.07, D 3.86, S 3.83, M 3.16, R 3.84, T 4.15, N 2.67, A 3.25, F 3.17, I 3.5, V 3.56, H 3.11, Q 4.19, P 3.61
S7: I 2.54, F 2.19, K 2.27, G 3.76, D 2.68, H 2.31
V3: H 3.21, K 3.44, I 3.46, G 3.92, T 2.85, S 3.43, F 3.18, W 4.23, P 3.31, E 2.45, L 2.57, R 2.14, N 2.96, Q 2.14, Y 2.91
I2: L 3.84, M 2.66, K 4.33, R 3.79, G 2.41, H 3.16, C 1.83, F 1.75, D 1.02, S 2.69, V 3.01, W 3.71, T 2.77
V4: S 4.44, N 3.21, K 4.3, P 2.36, R 3.46, T 3.04, F 2.09, G 3.49, Q 2.74, M 3.42, C 3.17, D 3.18, W 1.83
T5: H 3.62, Q 3.1, L 2.71, S 5.49, E 2.95, P 3.86, Y 2.99, G 4.08, I 2.58, M 3.04, K 2.97, C 4.62, A 2.62, V 2.65, W 2.72, R 3.33
Q6: I 2.71, A 2.85, T 2.85, V 2.76, S 2.58, P 3.21, R 1.46, N 3.99, C 2.42, E 2.59, D 4.07, L 4.3, M 1.77

Variants of: B2
Experiment: as above
Settings: c terminus: a fixed tail appended

Protein stability index, by site and new letter:
S12: R 2.72, Q 3.07, P 2.27, N 2.92, I 1.8, E 3.03, D 3.26, M 1.92, G 2.56, L 1.99, W 2.52, F 2.08, H 2.73, K 2.56, Y 2.48, T 2.59, V 2.58
G23: A 2.42, H 2.52, W 1.85, D 3.32, Y 1.69, E 3.25, T 2.96, C 3.18, P 3.31, N 2.72, R 2.43, F 2.44, V 2.28, K 3.18, M 1.58, I 2.16, S 2.76, L 1.8, Q 2.57
M20: W 2.04, Y 1.99, N 3.16, D 3.61, C 3.18, H 2.85, I 2.29, L 2.44, K 3.7, E 3.62, Q 3.09, S 3.55, T 3.16, F 1.87, G 3.03, P 3.03, R 3.25, A 3.27, V 2.62
K13: W 1.9, R 1.8, A 2.15, L 2.23, I 2.04, Y 2.06, E 3.07, C 3.8, S 2.64, N 2.79, H 3.04, D 3.18, T 2.8, Q 2.69, P 2.84, V 2.4, G 2.65, F 2.34, M 2.31
G17: A 2.86, Q 3.46, N 3.01, I 1.98, R 2.23, P 2.75, M 2.43, K 3.11, L 2.1, D 3.35, H 3.18, C 3.97, Y 2.58, V 2.26, F 2.46, W 1.63, T 2.8, S 2.75, E 3.44
V22: I 2.08, S 3.6, D 3.43, N 3.61, W 1.35, T 3.42, E 3.46, F 2.16, G 3.59, L 2.42, R 3.57, Q 3.44, A 3.04, P 3.05, K 3.18, Y 2.34, H 3.01, C 3.39, M 2.52
A19: D 3.66, Q 2.91, P 2.86, L 2.56, K 2.8, S 3.72, F 1.63, N 2.44, H 3.2, W 1.3, I 2.16, T 2.76, Y 2.12, G 2.32, V 2.37, C 4.28, R 2.06, M 2.28, E 3.29
T18: S 2.76, N 2.71, I 2, C 3.02, W 1.47, M 2.67, Q 2.67, F 2, L 2, G 2.5, H 2.59, Y 2.15, V 2.25, R 1.81, K 2.71, A 2.62, P 2.65, E 2.94, D 3.4
K14: L 2.44, N 2.8, F 1.98, Y 1.74, S 2.51, W 1.51, G 2.34, H 3.07, R 2.67, C 4.25, V 2.73, T 2.58, P 2.98, D 3, Q 2.45, E 3.44, A 2.29, M 2.91, I 2.78
K15: D 2.75, E 2.77, T 2.75, V 2.13, L 2.42, I 2.05, W 1.67, N 2.61, Q 2.52, M 2.2, F 2.07, Y 2.02, A 2.27, G 2.37, P 2.4, H 2.47, S 2.52, C 3.46
C24: Q 4.02, P 3.82, E 4.5, H 3.42, F 2.23, W 1.68, S 3.46, R 3.52, N 3.64, K 4.12, T 2.83, G 3.17, I 2.8, D 4.13, Y 2.75, L 2.48, V 3.24, M 2.52, A 3.09
C21: R 2.79, A 2.94, Y 2.97, E 3.39, D 2.96, K 3.81, P 3.59, T 3.71, W 1.91, F 2.71, N 3.29, Q 3.43, M 2.28, H 3.04, S 3.37, V 2.72, I 2.69, L 3.31, G 3.12
P16: A 2.52, S 2.69, E 3.07, K 2.24, T 2.37, R 1.99, Q 2.44, I 1.67, H 2.61, D 3.02, M 2.45, F 1.62, V 2.06, G 2.19, L 2.17, N 2.7, W 2.41, Y 2.42, C 3.12
